The record followed here is the supplement of paper PMC5998384.

For data set [1], the system named is HeLa Kyoto. Kind of data set: melting temperature (median over replicates), in situ; higher = more thermally stable.
Data set [2] has as its system HeLa Kyoto. The data set is described as follows: thermal stability score vs G1/S (z-score of summed log2 fold changes over temperatures); higher = more thermally stable than in G1/S.
The test system of data set [3] is HeLa Kyoto. Kind of data set: solubility change mitosis vs G1/S (difference of NP-40 vs SDS log2 ratios) (log2 ratio difference); higher = more soluble in mitosis.
Data set [4] concerns HeLa Kyoto. Kind of data set: solubility in G1/S (NP-40 vs SDS abundance) (log2 ratio); higher = more soluble. To be noted: cell cycle stage: G1/S.
[5] abbreviates: cell cycle stage: early G1 (4.5 h after nocodazole release).
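Wherever melting temperature (median over replicates), in situ is given: HeLa Kyoto cells synchronized by double thymidine or nocodazole block, proteins quantified by TMT10plex mass spectrometry, three independent biological replicates.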
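Wherever solubility change mitosis vs G1/S (difference of NP-40 vs SDS log2 ratios) is given: synchronized HeLa Kyoto cells (double thymidine block for G1/S, nocodazole release for mitosis), protein amounts in NP-40 versus SDS lysates quantified by mass spectrometry, three biological replicates.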
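Wherever solubility in G1/S (NP-40 vs SDS abundance) is given: HeLa Kyoto cells arrested at G1/S by double thymidine block, proteins quantified by TMT10plex mass spectrometry in mild NP-40 versus SDS extracts, three biological replicates.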
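Wherever thermal stability score vs G1/S (z-score of summed log2 fold changes over temperatures) is given: synchronized HeLa Kyoto cells, proteins quantified by TMT10plex mass spectrometry, three biological replicates, mitosis taken 0.5 h after nocodazole release, G1/S directly after double thymidine block.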

Take “MRFRIYKRKVLILTLVVAACGFVLWSSNGRQRKNEALAPPLLDAEPARGAGGRGGDHPSVAVGIRRVSNVSAASLVPAVPQPEADNLTLRYRSLVYQLNFDQTLRNVDKAGTWAPRELVLVVQVHNRPEYLRLLLDSLRKAQGIDNVLVIFSHDFWSTEINQLIAGVNFCPVLQVFFPFSIQLYPNEFPGSDPRDCPRDLPKNAALKLGCINAEYPDSFGHYREAKFSQTKHHWWWKLHFVWERVKILRDYAGLILFLEEDHYLAPDFYHVFKKMWKLKQQECPECDVLSLGTYSASRSFYGMADKVDVKTWKSTEHNMGLALTRNAYQKLIECTDTFCTYDDYNWDWTLQYLTVSCLPKFWKVLVPQIPRIFHAGDCGMHHKKTCRPSTQSAQIESLLNNNKQYMFPETLTISEKFTVVAISPPRKNGGWGDIRDHELCKSYRRLQ [MGAT2]”: the melting temperature in data set [1] (cell cycle stage: G1/S) turned out to be 53.8 °C; in data set [1] (cell cycle stage: mitosis), 53.2 °C. For the same sequence, the thermal stability score in data set [2] (setting [5]) was -0.501; in data set [2] (cell cycle stage: mitosis) it was -0.689. In addition, the “solubility change mitosis (log2)” value in data set [3] is -0.141. In data set [4], the “solubility in G1/S (log2)” value is -0.0662.

In data set [1] (cell cycle stage: G1/S), “MRGAGAILRPAARGARDLNPRRDISSWLAQWFPRTPARSVVALKTPIKVELVAGKTYRWCVCGRSKKQPFCDGSHFFQRTGLSPLKFKAQETRMVALCTCKATQRPPYCDGTHRSERVQKAEVGSPL [CISD3]” had a melting temperature of 50.8 °C. For the same sequence, the thermal stability score in data set [2] (setting [5]) was -0.749; in data set [2] (cell cycle stage: mitosis) it was -0.997. Further, the “solubility change mitosis (log2)” value in data set [3] amounted to 0.0825. In addition, the “solubility in G1/S (log2)” value in data set [4] is -0.205.

As for “MRGPEPGPQPTMEGDVLDTLEALGYKGPLLEEQALTKAAEGGLSSPEFSELCIWLGSQIKSLCNLEESITSAGRDDLESFQLEISGFLKEMACPYSVLISGDIKDRLKKKEDCLKLLLFLSTELQASQILQNKKHKNSQLDKNSEVYQEVQAMFDTLGIPKSTTSDIPHMLNQVESKVKDILSKVQKNHVGKPLLKMDLNSEQAEQLERINDALSCEYECRRRMLMKRLDVTVQSFGWSDRAKVKTDDIARIYQPKRYALSPKTTITMAHLLAAREDLSKIIRTSSGTSREKTACAINKVLMGRVPDRGGRPNEIEPPPPEMPPWQKRQEGGGGRGGWGGGGGGGGRGGGGGGGGRGGWGGGGGGWGGGGGGGGGWGGGGGGGRGGFQGRGDYGGRGGYGGRGGYGGRGYGDPYGGGGGGGGGGGGGGGYRRY [FAM98B]”, the melting temperature in data set [1] (cell cycle stage: G1/S) stood at 50.3 °C; in data set [1] (cell cycle stage: mitosis), 51.5 °C. For the same sequence, the thermal stability score is -0.356 in data set [2] (setting [5]) and 0.627 in data set [2] (cell cycle stage: mitosis). Further, the “solubility change mitosis (log2)” value in data set [3] is 0.0481. The “solubility in G1/S (log2)” value in data set [4] amounted to 0.558.

Regarding “MRKFAYCKVVLATSLIWVLLDMFLLLYFSECNKCDEKKERGLPAGDVLEPVQKPHEGPGEMGKPVVIPKEDQEKMKEMFKINQFNLMASEMIALNRSLPDVRLEGCKTKVYPDNLPTTSVVIVFHNEAWSTLLRTVHSVINRSPRHMIEEIVLVDDASERDFLKRPLESYVKKLKVPVHVIRMEQRSGLIRARLKGAAVSKGQVITFLDAHCECTVGWLEPLLARIKHDRRTVVCPIIDVISDDTFEYMAGSDMTYGGFNWKLNFRWYPVPQREMDRRKGDRTLPVRTPTMAGGLFSIDRDYFQEIGTYDAGMDIWGGENLEISFRIWQCGGTLEIVTCSHVGHVFRKATPYTFPGGTGQIINKNNRRLAEVWMDEFKNFFYIISPGVTKVDYGDISSRVGLRHKLQCKPFSWYLENIYPDSQIPRHYFSLGEIRNVETNQCLDNMARKENEKVGIFNCHGMGGNQVFSYTANKEIRTDDLCLDVSKLNGPVTMLKCHHLKGNQLWEYDPVKLTLQHVNSNQCLDKATEEDSQVPSIRDCNGSRSQQWLLRNVTLPEIF [GALNT1]”, the melting temperature in data set [1] (cell cycle stage: G1/S) amounted to 53.1 °C; in data set [1] (cell cycle stage: mitosis) it was 52 °C. Besides, the thermal stability score in data set [2] (setting [5]) is 3.31; in data set [2] (cell cycle stage: mitosis) it was 5. For the same sequence, the “solubility change mitosis (log2)” value in data set [3] is -0.0904. In addition, in data set [4], the “solubility in G1/S (log2)” value is -0.204.

Consider “MRKMLAAVSRVLSGASQKPASRVLVASRNFANDATFEIKKCDLHRLEEGPPVTTVLTREDGLKYYRMMQTVRRMELKADQLYKQKIIRGFCHLCDGQEACCVGLEAGINPTDHLITAYRAHGFTFTRGLSVREILAELTGRKGGCAKGKGGSMHMYAKNFYGGNGIVGAQVPLGAGIALACKYNGKDEVCLTLYGDGAANQGQIFEAYNMAALWKLPCIFICENNRYGMGTSVERAAASTDYYKRGDFIPGLRVDGMDILCVREATRFAAAYCRSGKGPILMELQTYRYHGHSMSDPGVSYRTREEIQEVRSKSDPIMLLKDRMVNSNLASVEELKEIDVEVRKEIEDAAQFATADPEPPLEELGYHIYSSDPPFEVRGANQWIKFKSVS [PDHA1]”, for which the melting temperature in data set [1] (cell cycle stage: G1/S) was 52.1 °C; in data set [1] (cell cycle stage: mitosis), 51.5 °C. The thermal stability score in data set [2] (setting [5]) is -1.47; in data set [2] (cell cycle stage: mitosis) it was -2.37. Also, the “solubility change mitosis (log2)” value in data set [3] is -0.122. Moreover, in data set [4], the “solubility in G1/S (log2)” value was 0.149.

Consider “MRLHLLLLLALCGAGTTAAELSYSLRGNWSICNGNGSLELPGAVPGCVHSALFQQGLIQDSYYRFNDLNYRWVSLDNWTYSKEFKIPFEISKWQKVNLILEGVDTVSKILFNEVTIGETDNMFNRYSFDITNVVRDVNSIELRFQSAVLYAAQQSKAHTRYQVPPDCPPLVQKGECHVNFVRKEQCSFSWDWGPSFPTQGIWKDVRIEAYNICHLNYFTFSPIYDKSAQEWNLEIESTFDVVSSKPVGGQVIVAIPKLQTQQTYSIELQPGKRIVELFVNISKNITVETWWPHGHGNQTGYNMTVLFELDGGLNIEKSAKVYFRTVELIEEPIKGSPGLSFYFKINGFPIFLKGSNWIPADSFQDRVTSELLRLLLQSVVDANMNTLRVWGGGIYEQDEFYELCDELGIMVWQDFMFACALYPTDQGFLDSVTAEVAYQIKRLKSHPSIIIWSGNNENEEALMMNWYHISFTDRPIYIKDYVTLYVKNIRELVLAGDKSRPFITSSPTNGAETVAEAWVSQNPNSNYFGDVHFYDYISDCWNWKVFPKARFASEYGYQSWPSFSTLEKVSSTEDWSFNSKFSLHRQHHEGGNKQMLYQAGLHFKLPQSTDPLRTFKDTIYLTQVMQAQCVKTETEFYRRSRSEIVDQQGHTMGALYWQLNDIWQAPSWASLEYGGKWKMLHYFAQNFFAPLLPVGFENENTFYIYGVSDLHSDYSMTLSVRVHTWSSLEPVCSRVTERFVMKGGEAVCLYEEPVSELLRRCGNCTRESCVVSFYLSADHELLSPTNYHFLSSPKEAVGLCKAQITAIISQQGDIFVFDLETSAVAPFVWLDVGSIPGRFSDNGFLMTEKTRTILFYPWEPTSKNELEQSFHVTSLTDIY [MANBA]”, for which the melting temperature in data set [1] (cell cycle stage: G1/S) was determined as 55.6 °C; in data set [1] (cell cycle stage: mitosis) it was 56 °C. For the same sequence, the thermal stability score in data set [2] (setting [5]) was -1.93; in data set [2] (cell cycle stage: mitosis), -0.28. For the same sequence, in data set [3], the “solubility change mitosis (log2)” value was -0.0887. The “solubility in G1/S (log2)” value in data set [4] is -0.0999.

For “MRLKIGFILRSLLVVGSFLGLVVLWSSLTPRPDDPSPLSRMREDRDVNDPMPNRGGNGLAPGEDRFKPVVPWPHVEGVEVDLESIRRINKAKNEQEHHAGGDSQKDIMQRQYLTFKPQTFTYHDPVLRPGILGNFEPKEPEPPGVVGGPGEKAKPLVLGPEFKQAIQASIKEFGFNMVASDMISLDRSVNDLRQEECKYWHYDENLLTSSVVIVFHNEGWSTLMRTVHSVIKRTPRKYLAEIVLIDDFSNKEHLKEKLDEYIKLWNGLVKVFRNERREGLIQARSIGAQKAKLGQVLIYLDAHCEVAVNWYAPLVAPISKDRTICTVPLIDVINGNTYEIIPQGGGDEDGYARGAWDWSMLWKRVPLTPQEKRLRKTKTEPYRSPAMAGGLFAIEREFFFELGLYDPGLQIWGGENFEISYKIWQCGGKLLFVPCSRVGHIYRLEGWQGNPPPIYVGSSPTLKNYVRVVEVWWDEYKDYFYASRPESQALPYGDISELKKFREDHNCKSFKWFMEEIAYDITSHYPLPPKNVDWGEIRGFETAYCIDSMGKTNGGFVELGPCHRMGGNQLFRINEANQLMQYDQCLTKGADGSKVMITHCNLNEFKEWQYFKNLHRFTHIPSGKCLDRSEVLHQVFISNCDSSKTTQKWEMNNIHSV [GALNT7]”, the melting temperature in data set [1] (cell cycle stage: G1/S) came out at 53.7 °C; in data set [1] (cell cycle stage: mitosis), 53.8 °C. Moreover, the thermal stability score worked out at 0.0877 in data set [2] (setting [5]) and 0.865 in data set [2] (cell cycle stage: mitosis). The “solubility change mitosis (log2)” value in data set [3] is -0.135. Moreover, the “solubility in G1/S (log2)” value in data set [4] was -0.206.
